{"source": "the nanobody polyreactivity screen of Harvey et al. (2022)"}
{"assay": "yeast display, Sf9 membrane polyspecificity reagent, FACS + sequencing; frameworks hold sequencing errors", "outline": "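Synthetic nanobody libraries on Saccharomyces cerevisiae BJ5465 were galactose-induced for 36–48 hours, stained 1 hour at 4 °C with 10% biotinylated, detergent-solubilized Sf9 membrane reagent and enriched on streptavidin microbeads. FACS then separated cells into low and high (top ~1%) gates by anti-HA (expression) and streptavidin (reagent binding) fluorescence. Genes were colony-PCR amplified, MiSeq 2 × 250 sequenced and CDR-length filtered. A clone's polyreactivity label is that of its gate of origin.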"}
{"sequence": "QVQLVESGGGLVQAGGSLRFSCADSGFTFRTYAMGWYIQAPGKERELVATIRRAGSTYYADSVKGRFTISRDNAKNTVYLQMNSLKPEDTAVYYCAATHYSFSWGYDYWGQGTQVTVSS", "polyreactivity (PSR sort gate)": "high polyreactivity"}
{"sequence": "QVQLVESGGGLVQAGGSLRFSSAASGRTFSSNAMGWYIQAPGKERELVAAISNSGSSTYYADSVKGRFTISRDNAKNTVYLQMNSLKPEDSAVYYCNAVGVYYWWYRLYDYWGQGTQVTVSS", "polyreactivity (PSR sort gate)": "high polyreactivity"}
{"sequence": "QVQLVESGGGLVQAGGSLRFSSPASGGTFFVNAMGWYRQAPGKERELVASITLSGGSSYYADSVKGRFTISRDNAKNTVYLQMNSLKPEDTAVYYCAKGWTRDNEREREDEYWGQGTQGTVSS", "polyreactivity (PSR sort gate)": "low polyreactivity"}
{"sequence": "QVQLVESGGGLVQAGGSLRIICAASGSIFTYNSMGWYREAPGKERELVAAISASGGRTYYADSVKGRFTISRDNAKNTVYLQMNSLKPEDTAVYYCNVLHRSDSGYYYRYDYWGQGTQVTVSS", "polyreactivity (PSR sort gate)": "high polyreactivity"}
{"sequence": "QVQLVESGGGLVQAGGSLRIICPASGNTFAYYAMGWYRQAPGKEREFVAAISGSGGRTYYADSVKGRFTISRDNAKNTVYLQMNILKPEDTAVYYCNARPAGGQGYGYWGQGTQVTVSS", "polyreactivity (PSR sort gate)": "high polyreactivity"}
{"sequence": "QVQLVESGGGLVQAGGSLRISCAASAITFPRNAMGWYREAPGKERELVAAITSVGSTKYADSVKGRFTFSRDNAKNTVYLQMNSLKPEDTAVYYCATRGASAISNSVRWSYYYWGQGTQVTVSS", "polyreactivity (PSR sort gate)": "low polyreactivity"}
{"sequence": "QVQLVESGGGLVQAGGSLRISCAASGFIFDPYAMGWYRQAPGKERELVASINTRGDRTSYADSVKGRFTISRDNAKNTVYLQMNSLKPEDTAVYYCNADAVDQVGPDDDYWGQGTQVTVSS", "polyreactivity (PSR sort gate)": "low polyreactivity"}
{"sequence": "QVQLVESGGGLVQAGGSLRISCAASGFIFGTNAKGWYRQAPGKERELVAAINCRGGGTYYADSVKGRFTISRDNAKYTVYLEMNSLKPEDTAVYYCAASRFDYWGQGTQVTVSS", "polyreactivity (PSR sort gate)": "low polyreactivity"}
{"sequence": "QVQLVESGGGLVQAGGSLRISCAASGFIFNIYAMGWYRQAPGKERELVASITSGGNTNYADSVKGRFTISRDNAKNTVYLQMNSLKPEDTAVYYCAAETSSSRGYDYWGQGTQVTVSS", "polyreactivity (PSR sort gate)": "low polyreactivity"}
{"sequence": "QVQLVESGGGLVQAGGSLRISCAASGFIFPWYTMGWYRQAPGKERELVAVINQSGGSTYYADSVKGRFTISRDNAKNTVYLQMNSLKPEDTAVYYCAARLVKQYYYWGQGTQVTVSS", "polyreactivity (PSR sort gate)": "high polyreactivity"}
{"sequence": "QVQLVESGGGLVQAGGSLRISCAASGFIFQSNAMGWYRQAPGKERELVAAISWSGDNTYYADSVKGRFTISRDNAKNTVYLQMNSLKPEDTAVYYCAAVPYPSYYDTGYDYWGQGTQVTVSS", "polyreactivity (PSR sort gate)": "low polyreactivity"}
{"sequence": "QVQLVESGGGLVQAGGSLRISCAASGFIFTGTALGWYRQAPGKERELVAAITWSGGRTYYADSVKGRFTISRDNAKNTVYLQMNSLKPEDTAVYYCNVYFSIAQRYVGGLIAHDNYWGQGTQVTVSS", "polyreactivity (PSR sort gate)": "high polyreactivity"}
{"sequence": "QVQLVESGGGLVQAGGSLRISCAASGFIISFYAMGWYRQAPRKERELVAAIKLSGGSTYYADSVKGRFTISRDNAKNTVYLQMNSLKPEETAVYYCNDVQYFSIPKPVWLFVLRYYYWGHGTQVTVSS", "polyreactivity (PSR sort gate)": "low polyreactivity"}
{"sequence": "QVQLVESGGGLVQAGGSLRISCAASGFTFSYNAMGWYRQAPGKERELVAGINVSSGGDTYADSVKGRFTISRDNAKNTVYLQMNSLKPEDTAVYYCAKDHYGDDTYGTPYDYDYWGQGTQVTVSS", "polyreactivity (PSR sort gate)": "low polyreactivity"}
{"sequence": "QVQLVESGGGLVQAGGSLRISCAASGGIIAINSMRCYRQAPGKERELVAAISWGDGITYYSDSVKRRFTISRDNAKYTVYLHMISLKPEDTAVYYCAADEDEYRGGDESWGQGTQVTVSA", "polyreactivity (PSR sort gate)": "low polyreactivity"}
{"sequence": "QVQLVESGGGLVQAGGSLRISCAASGGTFQAYAMGWYRPAPGKERELVAAITRRGTRTYYADSVKGRFTISRDNAKNTVYLQMNSLKPEDTAVYYCAAVRYPNWYDYWGQGTQVTVSS", "polyreactivity (PSR sort gate)": "high polyreactivity"}
{"sequence": "QVQLVESGGGLVQAGGSLRISCAASGIIFYRNAMGWYRQAPGKERELVAVITASGGNTYYADSVKGRFTISRDNAKNTVYLQMNSLKPEDTAVYYCNRELTSPRRWHVSRAYDYWGQGTQVTVSS", "polyreactivity (PSR sort gate)": "low polyreactivity"}
